Measured values as given in publication PMC3462190, “A Peptidic Unconjugated GRP78/BiP Ligand Modulates the Unfolded Protein Response and Induces Prostate Cancer Cell Death” (PLoS ONE, 2012).
Where no end group is shown, it is not given here.

Legend:
[1] = tested on: GRP78/BiP; experiment: In vivo luciferase refolding assay in HEK-293 cells; format: cell-based; details: heat shock 45°C 30 min, relative to non-heat-shocked cells, mean of three independent experiments ± SEM
Method: In vivo refolding assay was performed essentially according to the method described by. HEK-293 in a 70%-confluent 10 cm dish were transfected with β-actin-fire fly luciferase construct (2 µg), pcMV6-GRP78 (3 µg), Bag-1 or Bag-1 peptides in pcDNA3.1-HA (6 µg) and Renilla luciferase construct (0.5 µg) for equal transfection control. Two days after transfection the cells were divided into two and incubated in heat shock buffer (MOPS 20 mM and cycloheximide 20 µg/ml) for 30 min at 37°C. One half of the transfected cells was heat shocked for 30 min at 45°C and allowed to recover at 37°C for 30 min. The other half was left untreated and used as control. At the end of the experiments, the cells were harvested, lysed and luciferase activity was measured. The activity measured for the non-heat shocked cells was set as 100% of refolded luciferase and the activity measurements of the heat shocked cells were expressed relative this value.
Figure 2 Identification of Bag-1 peptide interfering with the action of GRP78/BiP. […] Depicted in blue and red are the ubiquitin-like domain and the BAG domain respectively. B. Identification of the Bag-1 peptide binding to GRP78/BiP. […] Western blot analysis with an HA antibody to detected the Bag-1 mutants is shown. […] Thereafter luciferase activity was measured. Results are expressed as percentage of refolding activity relative to non-heat-shocked cells and presented as bar charts of the average of three independent experiments ± SEM. *p<0.05.
Figure 6 Selectivity of action of the Bag-1 peptide. […] Fluorescence polarization (FP) assays with a 10 nM FITC-labeled 7-mer Bag-1 peptide and dilutions of the GST-fused substrate binding domain of GRP78 in 60 µl of Tris-GSH buffer (50 mM Tris, 10 mM reduced glutathione and 0.1% BSA, pH 8.0). Triplicate samples were measured after 5 h of incubation at room temperature with an Infinite F-200 reader (Tecan) with excitation at 490 nm and emission at 535 nm. Binding constants were determined from three independent experiments using non-linear regression in Sigma Plot 10.0. […]

[2] = tested on: SBD of GRP78/BiP; experiment: GST pull-down with substrate binding domain (SBD) of GRP78/BiP; details: 10 µg GST-GRP78(SBD), 500 µg (N-terminal peptide: 100 µg) lysate of HEK-293 cells expressing HA-tagged construct
Method: Expression of GST fusion proteins for GST-pull-down experiments were performed essentially as described previously.
Figure 1 Bag-1 proteins interact with the molecular chaperone GRP78/BiP. A. The Bag-1 family of proteins binds GRP78/BiP. GST pull-down assay was performed incubating 5 µg each of GST-fused Bag-1 proteins with 400 µg of 22Rv.1 cell lysate. Western blotting with a specific antibodiy against GRP78/BiP was used to detect the binding and an anti-GST antibody was used to determine the amount of bacterially purified protein employed in the assay. B. Bag-1 and GRP78 interact in vivo. GRP78 was immunoprecipitated with an anti-GRP78/BiP antibody or IgG as control in 22Rv.1 cells. Western blotting with an anti-Bag-1 and anti-GRP78 antibody was performed to determine GRP78-Bag-1 interaction. C. Bag-1 and GRP78/BiP show a perinuclear colocalization. Confocal microscopic analyses were carried out in 22Rv.1 cells that have been paraformaldehyde-fixed and stained with a Bag-1 antibody to detect Bag-1 (green channel) and a GRP78/BiP specific antibody to detect GRP78/BiP (red channel). The orange staining in the merge of the two channels indicates the degree of co-localization of the two proteins. All images (40X) were acquired with a Leica TCS SPE confocal microscope (Leica Microsystems; Scale bars indicate 25 µm). D. Diagrammatic representation of the domains of GRP78. E. Bag-1 binds to multiple sites on GRP78. GST-pull down assay performed incubating 500 µg lysate of HEK-293 cells transfected with an HA-tagged Bag-1 and 10 µg GST-fused GRP78 full length and its ATPase and substrate binding domain (SBD). Western blot analysis was carried out using an HA antibody to detect the Bag-1-tagged protein.
Figure 2 Identification of Bag-1 peptide interfering with the action of GRP78/BiP. […] Depicted in blue and red are the ubiquitin-like domain and the BAG domain respectively. B. Identification of the Bag-1 peptide binding to GRP78/BiP. GST-pull down assay performed incubating 500 µg lysates from HEK-293 cells transfected with the indicated Bag-1 constructs and 10 µg of GST-GRP78(SBD) or GST as control. Western blot analysis with an HA antibody to detected the Bag-1 mutants is shown. […] C. The Bag-1 68 amino acid peptide binds in vivo to GRP78. HEK 293 cells were co-transfected with pcDNA-HA-tagged Bag-1 peptide. […] Thereafter luciferase activity was measured. Results are expressed as percentage of refolding activity relative to non-heat-shocked cells and presented as bar charts of the average of three independent experiments ± SEM. *p<0.05. […]

“19-mer: Bag-1L 202–220 (TPLSALGIQDGCRVMLIGK; not fully specified)” was tested. Which “GRP78/BiP refolding activity (luciferase)” value (“GRP78/BiP refolding activity” for short) [1] did it give?
Its value is “inhibited the ability of GRP78/BiP to refold denatured protein”.

With “N-terminal peptide: N-terminal 40 residues of the Bag-1 peptide (Bag-1L 202–241) (TPLSALGIQDGCRVMLIGKKNSPQEEVELKKLKHLEKSVE; not fully specified)” as the molecule, how does the “interaction with SBD of GRP78/BiP” value [2] read?
Its value is “interacted preferentially with the SBD”.

B1: Bag-1: cochaperone Bag-1, HA-tagged (pcDNA3.1-HA-Bag-1), or endogenous (protein)
chain: TPLSALGIQDGCRVMLIGKKNSPQEEVELKKLKHLEKSVEKIADQLEELNKELTGIQQGFLPKDLQAE
modifications: left off: HA, end not stated, kept
notes: cochaperone Bag-1, HA-tagged (pcDNA3.1-HA-Bag-1), or endogenous
For B1, which “GRP78/BiP refolding activity” value [1] is on record?
Its value is “reduced to the control level”.

And the “interaction with SBD of GRP78/BiP” value [2]?
Its value is “interacted not only with the full length GRP78/BiP but also with its ATPase and SBD”.

B2: Bag-1 peptide: internal sequence of 68 amino acids of Bag-1 (Bag1-L 202–269), HA-tagged, expressed from pcDNA3 (peptide)
chain: B1 chain
modifications: also: HA tag, end not given here
How did the “GRP78/BiP refolding activity” value [1] turn out when B2 was run?
The value was “reduced to the control level”.

And the “interaction with SBD of GRP78/BiP” value ([2]; listed as 68 amino acid sequence)?
The value was “required for binding the SBD of GRP78/BiP”.

And the “interaction with SBD of GRP78/BiP” value ([2]; listed as full length 68 amino acid peptide)?
The value was “interacted with both the SBD and ATPase binding domains of GRP78”.
